# In publication PMC11694665, “Open and closed structures of L-arginine oxidase by cryo-electron microscopy and X-ray crystallography” (Journal of Biochemistry, 2024):
# T1: PT-AROD (L-arginine oxidase from Pseudomonas sp. TPU 7192) (Pseudomonas putida, UniProt A0A177SH44)
# T1 construct: gene AYO28_23740; full length, recombinant in E. coli BL21(DE3) from pET-15b; homooctamer (D4), one FAD per monomer; 4632 residues modelled in octamer (579 per chain)
# T1 sequence (A0A177SH44 1-589): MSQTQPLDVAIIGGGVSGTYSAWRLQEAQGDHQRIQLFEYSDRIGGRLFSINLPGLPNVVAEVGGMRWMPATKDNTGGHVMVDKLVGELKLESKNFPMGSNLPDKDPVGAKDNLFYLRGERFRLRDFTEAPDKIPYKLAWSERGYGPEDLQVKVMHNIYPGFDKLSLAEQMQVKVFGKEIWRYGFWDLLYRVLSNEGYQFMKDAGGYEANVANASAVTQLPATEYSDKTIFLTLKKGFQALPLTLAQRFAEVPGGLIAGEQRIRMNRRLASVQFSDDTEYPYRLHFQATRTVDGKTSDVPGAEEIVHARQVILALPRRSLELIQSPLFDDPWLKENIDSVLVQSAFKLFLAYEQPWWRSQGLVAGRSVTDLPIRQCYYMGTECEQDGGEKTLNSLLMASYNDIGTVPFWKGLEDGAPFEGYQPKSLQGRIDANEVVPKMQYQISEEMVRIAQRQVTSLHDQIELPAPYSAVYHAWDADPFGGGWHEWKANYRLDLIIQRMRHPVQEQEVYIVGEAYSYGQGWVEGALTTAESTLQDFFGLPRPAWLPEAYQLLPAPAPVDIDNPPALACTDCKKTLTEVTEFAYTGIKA
# B1: PT-AROD (L-arginine oxidase from Pseudomonas sp. TPU 7192) (Pseudomonas putida) (protein)
# chain: MSQTQPLDVAIIGGGVSGTYSAWRLQEAQGDHQRIQLFEYSDRIGGRLFSINLPGLPNVVAEVGGMRWMPATKDNTGGHVMVDKLVGELKLESKNFPMGSNLPDKDPVGAKDNLFYLRGERFRLRDFTEAPDKIPYKLAWSERGYGPEDLQVKVMHNIYPGFDKLSLAEQMQVKVFGKEIWRYGFWDLLYRVLSNEGYQFMKDAGGYEANVANASAVTQLPATEYSDKTIFLTLKKGFQALPLTLAQRFAEVPGGLIAGEQRIRMNRRLASVQFSDDTEYPYRLHFQATRTVDGKTSDVPGAEEIVHARQVILALPRRSLELIQSPLFDDPWLKENIDSVLVQSAFKLFLAYEQPWWRSQGLVAGRSVTDLPIRQCYYMGTECEQDGGEKTLNSLLMASYNDIGTVPFWKGLEDGAPFEGYQPKSLQGRIDANEVVPKMQYQISEEMVRIAQRQVTSLHDQIELPAPYSAVYHAWDADPFGGGWHEWKANYRLDLIIQRMRHPVQEQEVYIVGEAYSYGQGWVEGALTTAESTLQDFFGLPRPAWLPEAYQLLPAPAPVDIDNPPALACTDCKKTLTEVTEFAYTGIKA
# notes: full length, recombinant in E. coli BL21(DE3) from pET-15b; homooctamer (D4), one FAD per monomer; 4632 residues modelled in octamer (579 per chain)
# How the values were obtained:
# [1] = target: T1, PT-AROD (L-arginine oxidase from Pseudomonas sp. TPU 7192); experiment: cryo-EM ([…] Å) and X-ray crystallography ([…] Å); format: binding; conditions: one FAD per monomer; copurified, 0.2 μM FAD in purification buffers
# [2] = target: L-arginine oxidase from Pseudomonas sp. TPU 7192 (Pseudomonas sp. TPU 7192); experiment: cryo-EM structure; single-particle analysis, 2.5 mg/ml protein in 20 mM HEPES (pH 8.0), 50 mM NaCl, with bound FAD; D4 symmetry; octamer
# [3] = target: L-arginine oxidase from Pseudomonas sp. TPU 7192 (Pseudomonas sp. TPU 7192); experiment: mass photometry; 0.1 mg/ml in SEC buffer (20 mM HEPES pH 8.0, 50 mM NaCl), on a glass coverslip, 60 s, three repeats; molecular weight in solution
# [4] = target: L-arginine oxidase from Pseudomonas sp. TPU 7192 (Pseudomonas sp. TPU 7192); experiment: crystal structure; crystals grown at 20°C from 10 mg/ml protein, 20% w/v PEG 3350, 0.2 M potassium citrate tribasic (pH 8.3); four molecules in the asymmetric unit, octamer made by a symmetry mate
# N=C(N)NCCC[C@H](N)C(=O)O = system: T2, N=C(N)NCCC[C@H](N)C(=O)O; experiment: peroxidase-coupled colourimetric assay (4-aminoantipyrine/TOOS), non-linear regression; format: biochemical, Pseudomonas putida; conditions: 100 mM Tris-HCl pH 7.0, 37 °C, substrate 0-2.5 mM
# T2 construct: full length, recombinant in E. coli BL21(DE3) from pET-15b; homooctamer (D4), one FAD per monomer; 4632 residues modelled in octamer (579 per chain)
# Description: (§1) peroxidase-coupled colourimetric assay (4-aminoantipyrine/TOOS), non-linear regression on PT-AROD (L-arginine oxidase from Pseudomonas sp. TPU 7192)
# NCCCC[C@H](N)C(=O)O = system: T3, NCCCC[C@H](N)C(=O)O; experiment: as above; format: biochemical, Pseudomonas putida; conditions: 100 mM Tris-HCl pH 7.0, 37 °C, substrate 0-10 mM
# T3 construct: full length, recombinant in E. coli BL21(DE3) from pET-15b; homooctamer (D4), one FAD per monomer; 4632 residues modelled in octamer (579 per chain)
# Description: as §1
# [5] = substrate: N=C(N)NCCC[C@H](N)C(=O)O; experiment: as above; format: biochemical, Pseudomonas putida; conditions: 100 mM Tris-HCl pH 7.0, 37 °C, substrate 0-2.5 mM
# Description: as §1
# [6] = substrate: NCCCC[C@H](N)C(=O)O; experiment: as above; format: biochemical, Pseudomonas putida; conditions: 100 mM Tris-HCl pH 7.0, 37 °C, substrate 0-10 mM
# Description: as §1
Molecule,Km (N=C(N)NCCC[C@H](N)C(=O)O) [µM],kcat (N=C(N)NCCC[C@H](N)C(=O)O) [s⁻¹],kcat/Km (N=C(N)NCCC[C@H](N)C(=O)O) [M⁻¹ s⁻¹],Km (NCCCC[C@H](N)C(=O)O) [µM],kcat (NCCCC[C@H](N)C(=O)O) [s⁻¹],kcat/Km (NCCCC[C@H](N)C(=O)O) [M⁻¹ s⁻¹],further results
Cc1cc2nc3c(=O)[nH]c(=O)nc-3n(C[C@H](O)[C@H](O)[C@H](O)COP(=O)(O)OP(=O)(O)OC[C@H]3O[C@@H](n4cnc5c(N)ncnc54)[C@H](O)[C@@H]3O)c2cc1C [FAD],,,,,,,cryo-EM (2.3 Å) and X-ray crystallography (3.4 Å) [1]: We obtained a cryo-EM map of PT-AROD in complex with FAD
L-arginine oxidase from Pseudomonas sp. TPU 7192 (enzyme),,,,,,,stoichiometry N [2]: 8; stoichiometry N [3]: 8; stoichiometry N [4]: 8
PT-AROD (L-arginine oxidase from Pseudomonas sp. TPU 7192) (Pseudomonas putida; E486A),190,3.5,18000,1200,1.1,920,
PT-AROD (L-arginine oxidase from Pseudomonas sp. TPU 7192) (Pseudomonas putida; Q343E),1700,10.4,6100,6900,0.5,72,
B1,,,,,,,Km [5]: 480 µM; kcat [5]: 6.2 s⁻¹; kcat/Km [5]: 13000 M⁻¹ s⁻¹; Km [6]: 20000 µM; kcat [6]: 2.7 s⁻¹; kcat/Km [6]: 140 M⁻¹ s⁻¹
